In publication PMC13483476:

How the values were obtained:
[1] = molecular target: JR-FL.v6 V3 peptide (HIV-1 clade B isolate JR-FL); experiment: SPR
[2] = molecular target: JR-FL.v6 V3 peptide (HIV-1 clade B isolate JR-FL); experiment: differential scanning fluorimetry

## 19b antigen-binding fragment (Fab)
[1]
  Kd: 1.74 nM
[2]
  increase of the transition temperature of the Fab when bound to the peptide: 6.3 °C
